Assay results from PMC3879392, “Mutant LV^476-7AA of A-subunit of Enterococcus hirae V1-ATPase: High affinity of A3B3 complex to DF axis and low ATPase activity” (SpringerPlus, 2013).

Tested on: Nc1ncnc2c1ncn2[C@@H]1O[C@H](COP(=O)(O)OP(=O)(O)OP(=O)(O)O)[C@@H](O)[C@H]1O
Assay: purified protein
Conditions: 25 mM MES-Tris pH 6.5, 4 mM MgSO4, 10% glycerol, 25 C

“E. hirae V1-ATPase (A3B3DF complex) (Enterococcus hirae ATCC 9790)” gave a Km of 400 µM.
